According to paper PMC6105367 (The FEBS journal, 2018):

Biological target: the molecule itself
Experiment: negative-stain electron microscopy

B1: full-length zebrafish ASC, recombinant, His-NusA-GB1 tag cleaved off (natural protein, UniProt Q9I9N6 1-203, looked up)
chain: MAESFKEHLQEAFEDLGADNLRKFKSKLGDRRQEPRVTKSAIEKLKDEIDLADLMVGVFTSKDAVSVTVEILRAIKCNAVADDLLRNTGQSESKGALSDESKCASSKAVSKVAFSKVNFIDEHWKELIDRVNNVDPILDILRQKKVITNEDYCTIRNKETPQKKMRELLTGPITCAGNKGKEVLYDALRESNKFLMDDLEDAE
binding result: binds
